Measurements: patent US20180215829A1 (published 2018)
Positions count from the first letter of the chain named.

B1: VH clone 1.2 (VHH)
VHH: EVQLVESGGGLVQPGRSLRLSCAASGFTFDDYAMHWVRQAPGKGLEWVSGISWNSGRMDYADSVKGRFTISRDNAKNSLYLQMNSLRAEDTALYYCAKEKGLGYCRGGSCSYFDYRGQGTLVTVSS
B2: VH clone 1.1 (VHH)
VHH: B1 VHH with E1Q, N77K, L93M, Y104F
B3: VH clone 2.1 (VHH)
VHH: QVQLVQSGAEVKKPGASVKVSCKASGYPFTSYDINWVRQATGQSLEWMGWMNPNSGDTVYAQKFQGRVTMTRNTSISTAYMELSSLRSEDTAVYFCARGRRDDWKNNYWGQGTLVTVSS

What follows are binders tested against recombinant human IL-17RA Fc fusion protein (R&D Systems 177-IR-100) (UniProt Q96F46 33-320) (assay: BIAcore).
Chain of recombinant human IL-17RA Fc fusion protein (R&D Systems 177-IR-100) (Q96F46 33-320): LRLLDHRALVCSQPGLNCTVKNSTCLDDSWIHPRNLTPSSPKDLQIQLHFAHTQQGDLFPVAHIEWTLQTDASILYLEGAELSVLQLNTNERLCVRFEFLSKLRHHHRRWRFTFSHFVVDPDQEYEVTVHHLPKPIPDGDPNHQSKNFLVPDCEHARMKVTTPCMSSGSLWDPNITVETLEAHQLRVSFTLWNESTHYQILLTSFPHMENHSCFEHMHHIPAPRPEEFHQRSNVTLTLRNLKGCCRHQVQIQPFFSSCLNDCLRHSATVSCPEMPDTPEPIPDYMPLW

koff [s⁻¹] | Binder
5.79e-05 | B1
5.83e-05 | B2
0.00384 | B3
